The source of these data is patent US20180193413A1 (UNIVERSITY OF BRITISH COLUMBIA, published 2018).

In assay [1] the target is T1, Porcine pancreatic α-amylase (porcine, UniProt P00690 16-511).
T1 construct: Bought enzyme; also called PPA
T1 sequence: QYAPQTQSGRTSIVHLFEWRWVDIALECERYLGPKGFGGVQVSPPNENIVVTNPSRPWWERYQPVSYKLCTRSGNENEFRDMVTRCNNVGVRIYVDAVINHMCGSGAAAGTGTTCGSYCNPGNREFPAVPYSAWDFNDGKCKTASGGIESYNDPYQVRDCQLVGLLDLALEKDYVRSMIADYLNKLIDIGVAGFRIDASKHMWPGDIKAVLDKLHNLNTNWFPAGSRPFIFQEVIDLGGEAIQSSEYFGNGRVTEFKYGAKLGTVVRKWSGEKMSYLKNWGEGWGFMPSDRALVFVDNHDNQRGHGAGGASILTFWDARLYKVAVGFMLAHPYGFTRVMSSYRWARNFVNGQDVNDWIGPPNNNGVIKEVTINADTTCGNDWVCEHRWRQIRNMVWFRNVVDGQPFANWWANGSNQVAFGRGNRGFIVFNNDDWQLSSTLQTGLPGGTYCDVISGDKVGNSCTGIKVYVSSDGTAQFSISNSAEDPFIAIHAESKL
The assay can be described thus: enzyme kinetics, inhibition of glycosidase activity.

In assay [2] the target is T2, Human pancreatic α-amylase (human, UniProt P04746 16-511).
T2 construct: Recombinant, secreted from Pichia pastoris, purified and deglycosylated; also called HPA; human pancreatic alpha amylase
T2 sequence: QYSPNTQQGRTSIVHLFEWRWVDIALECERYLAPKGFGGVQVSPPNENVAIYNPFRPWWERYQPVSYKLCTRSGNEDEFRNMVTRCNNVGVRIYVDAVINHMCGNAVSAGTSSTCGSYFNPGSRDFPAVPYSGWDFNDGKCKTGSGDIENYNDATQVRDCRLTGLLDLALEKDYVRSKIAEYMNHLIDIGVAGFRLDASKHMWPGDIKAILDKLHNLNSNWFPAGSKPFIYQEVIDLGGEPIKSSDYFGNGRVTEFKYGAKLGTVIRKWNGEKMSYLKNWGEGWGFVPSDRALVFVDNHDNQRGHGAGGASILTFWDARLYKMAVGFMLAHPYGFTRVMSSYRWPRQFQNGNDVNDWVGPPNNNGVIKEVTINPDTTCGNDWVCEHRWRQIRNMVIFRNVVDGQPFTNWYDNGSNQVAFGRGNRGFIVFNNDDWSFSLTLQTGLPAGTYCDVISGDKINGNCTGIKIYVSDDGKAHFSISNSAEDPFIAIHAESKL
Kind of assay: enzyme kinetics (CNP-G3 hydrolysis), Morrison tight-binding fit, competitive inhibition; recombinant helianthamide.

For assay [3], the target named is T3, T163R HPA mutant (human, UniProt P04746 16-511).
T3 construct: it may be shifted against the precursor entry
T3 sequence: T2 sequence with T163R
The assay can be described thus: enzyme kinetics, Ki against T163R HPA compared with HPA.

Assay [4] addresses T2, Human pancreatic α-amylase. The assay can be described thus: enzyme kinetics (CNP-G3 hydrolysis), uncleaved bar′ fusion.
In assay [5] the target is T3, T163R HPA mutant. Described as above.
The target in assay [6] is T2, Human pancreatic α-amylase. Kind of assay: enzyme kinetics, Ki of bar′ fusion mutants against HPA.

Numbering of substitutions follows the chain as printed. Numbers in names are those of the source. Bridges are numbered along the chain shown (N, C = ends). Where no end group is shown, it is not given here.

B1: Helianthamide (peptide)
peptide: ESGNSCYIYHGVSGICKASCAEDEKAMAGMGVCEGHLCCYKTPW
modifications: disulfide 16-33, 20-39, 6-38
notes: 44-residue peptide with three disulfide bonds in a 1-5, 2-4, 3-6 pattern (C6-C38, C16-C33, C20-C39); crystal structure with PPA; also called recombinant Helianthamide; synthetic Helianthamide
A word on the Ki: it is the dissociation constant of the complex between target and ligand, obtained from inhibition or displacement. B1: the results for the Ki in assay [1] and in assay [2] were 0.1 nM and 0.01 nM, respectively.

B2: bar′-Helianthamide fusion (other)
chain: B1 peptide
modifications: not fully specified (N-terminus); ends and bridges not checked
notes: Uncleaved fusion secreted from E. coli BL21*(DE3), purified on nickel; The text says that the junction is a TEV site; also called barnase′-helianthamide
On to B2, for which the “fold decrease in potency (against wild-type HPA)” value in assay [3] is 20 fold. Moreover, the inhibitory constant (Ki) was found to be 0.9 nM in assay [4] and 20 nM in assay [5].

B3: Bar′-Y7A (other)
chain: B1 peptide with Y7A
modifications: not fully specified (N-terminus); ends and bridges not checked
notes: Tested as uncleaved fusion; also called Y7A mutant of Helianthamide in bar′-Helianthamide fusion form
Take B3: the Ki stood at 5 nM in assay [4] and 107 nM in assay [5].

B4: Bar′-Y9A (other)
chain: B1 peptide with Y9A
modifications: not fully specified (N-terminus); ends and bridges not checked
notes: Tested as uncleaved fusion; also called Y9A mutant of Helianthamide in bar′-Helianthamide fusion form
In the case of B4, the “fold decrease in potency (against the bar′-Helianthamide fusion)” value in assay [6] is 50 fold. The inhibition constant (Ki) is 47 nM in assay [4] and 960 nM in assay [5].

B5: Bar′-H10A (other)
chain: B1 peptide with H10A
modifications: not fully specified (N-terminus); ends and bridges not checked
notes: Tested as uncleaved fusion; also called H10A mutant of Helianthamide in bar′-Helianthamide fusion form
Consider B5, for which the inhibition constant (Ki) in assay [4] stood at 15 nM; in assay [5], 321 nM.
